Measurements published in a protein production outcome set (Wang et al. 2014).

Assay: label from the status in PepcDB records
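Note: failed if final PepcDB status was selected cloned or expressed and not failed if soluble or beyond.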

| Sequence | protein production |
| --- | --- |
| MIKEWATVVSWQNGQALVSCDVKASCSSCASRAGCGSRVLNKLGPQTTHTIVVPCDEPLVPGQKVELGIAEGSLLSSALLVYMSPLVGLFLIASLFQLLFASDVAALCGAILGGIGGFLIARGYSRKFAARAEWQPIILSVALPPGLVRFETSSEDASQ | failed |
| MIKGEQKRYSEMTKEELQQEIAMLTEKARKAEQMGMVNEYAVYERKIAMAKAYMLNPADFHPGEIYEIEGAPGEYFKVRYLKGVFAWGWRLKGNGEEEALPISLLRKPNLPQS | not failed |
| MIKGTGHMIVNIANDRGMSIDSIRKTIKESVLIAYKKYFGSNENAFIKFDDDTGDLSVYAKKKIVKEVKDSLLEILEKDISKENIVEGDYAYIEINPKVFDRLSIQVAKQRTKNDLQGIEDNEILSEFKSKLNKVVIGYVQQNRNGDLYVNLGNTDGIIPKKYQSPREVYNLNDKIRVLVYNVKKGKNGIEVILSRTHPKFIEELLALEIPEIEEGIIKIHKIVRDPGYRIKVAVYSEKEEIDPVGPCIGQKGVRIQSIIKELEGEKIDIIPYSKDIKEFIKDSLTPSKIEHVYILDEDLHKALVVVSDDQLSLAIGKMGQNVRLANRLLDWAIDVKTSSQFAEMKANSEFKQETLEMFDKVMQDVVEEEQFEEISKISDLKLLDPSVISNLSKEGFDDINNFLQADEGVLFNLGVSYEKQEEINKILKEGMIIIANDNDESMEKVEEDEELLCPECGVVINENMTSCPGCKIGLSFEFEEE | failed |
| MIKLIYKPLWLILLIFFSLKAIAEDHYPTAPSPFYYVSDYTKTLNQQEWRTLEDALINNRSKTSSQIIVVMIPSTDGEEIARYAHNLFNKWGIGRVKHNENNGVLLLIAKNDRKLFIATGRGLESALPDAIAATIIRHHITPYFKQNLYAEGIASGLSAIMAAINGEFAAYDEYQSSNNQTLDGFFFFLFAAFVIFMMFRPTRNSQYISRSNTKPFQQILRHSRYHHDTSRDLYRGGSGDSFGGGSSGGGGAGGSWLEHHHHHH | failed |
| MIKQSPKYITPLNEQNVNKDNANLLVCPFAGASNSAFNSWRSTDISGLNCQLVNYSGHGCRFKEPAFNDIGLLANELITIIKKFYPPRHNSLLLCGHSMGAQVAFETAIQLEKNGWELSGLILSGCQAPHIQARRLLSDLNDDDFIQQLIAIGGCDAELIKQPQLLKQFMPLLRADFLATERYFFQKSTKRLFHTPVLLMYGSHDSEADKNEVEAWQDWIDKHCTINCIAGDHFYPITRPNTFCRFIIDFYHQ | failed |
| MIKSDDAGKLILRLALGILVIMHGLAKLSSGVGGIAGMLSSHGLPGFLAYFAYVGEIVGPLLIILGIYCRLGALLVVLNMVVAILLAHMGQLFSISNTGGWALELQGMFLFGALALAFMGAGRFSLAGSGGRWN | failed |
| MIKSTNIQAIGSGIMHQINNVYSLTPLSLPMELTPSCNEFYLKTWSEWEKNGTPGEQRNIAFNRLKICLQNQEAELNLSELDLKTLPDLPPQITTLEIRKNLLTHLPDLPPMLKVIHAQFNQLESLPALPETLEELNAGDNKIKELPFLPENLTHLRVHNNRLHILPLLPPELKLLVVSGNRLDSIPPFPDKLEGLALANNFIEQLPELPFSMNRAVLMNNNLTTLPESVLRLAQNAFVNVAGNPL | failed |
| MIKVEKEVSNDYIIKGFKHFTQLATEYFQGHPDCNAARKRMRDTIDANLQLKAELTAASYTEHTTLLSPKMQQIIWAHWGPPIISLSENHANELEHHHHHH | failed |
| MIKVGVIGFGTVGQGVVESLVQLERGLRKEVTLEMLLVTNRRKHEHSEQYALVTDDWETFAARYYDVVFEAAGGIEPVYDYVRFFLKKGVPVVTANKKLVAERGEELERLAAENDTYLCYEAAVAGGIPILNAIKGTLATTSFTSVAGILNGTTNYILTGMIEQNRPFQDMLEEAQAKGYAEADPTDDIEGYDAWYKIRILARLCFGIWPNRDDISRSGLHDVLDWHVELGQSLGLTLKLDGRASVKNNTIIGSVAPAFFTNDHPFSTVYGVTNAVVLEGKAIERLLFTGPGAGKEATANSMVEDYLFHERYKGERQPMLIKEKEQNRIANVLVMVAAHEKKEAEKVVEHLPCQRINTFAADEGEAWWLKVYEDVIPFISKQLGLSLYRVYGAFEKQLVTTNMHHPSSIDETLEQKA | failed |
| MIKYILGIVIFIAIVLVAITIGANNDQIITFNYIVAESQFQLSSLVAILFGLGLILGWLITAFFYIKLKLKNMALARQVKRQTLQINELTTTRDKVV | failed |
| MIKYLIEKEFKQLLRNSFLPRLIFIFPCMIMLLMPWAANLEIKNIRMNIIDNDHSVISRRLVDKITASTYFQTTALPDSYEKGMEAIEAGTADLLLEIPRGFEKDWVNGGAANVLLAVNAVNGTKGGLGSSYLSAIVNDYGEELRTESGTTSFSADGNLPRIDILTQNLFNARLDYKLFMVPALMVMLLTMLCGFLPALNIVGEKEAGTIEQINVTPVGKFTFILAKLIPYWLIGFVVLTLCFVLAWTLYGIFPVGHFWVIYCFSIVFVLAVSGLGLVISNHSATMQQAMFVMWFCMLILILMSGLFTPIRSMPEWAQWITMLNPLKYFMQVMRMVYLKGSGFIDLLPQLGALLAFALLFNVWAVKSYRKSG | failed |
| MILEDLNQLPAAEASHTFMQCSASAWVKKMVTARPFSSELAIKKAADDAWQGLTEQDYFEAFEGHPKIGDVSSLRAKYANTKELAGNEQGLVKEANDDVLEVLSQGNSDYEKKFGFIFIVCATGKSAKQMSDLLQARLPNNKTQELVNAAEEQRKIFQLRIDKALAEGLEHHHHHH | failed |
| MILGIDVGGTSVKFGLVTPEGEIQNATRFMTADWVNGIGFVESMKLEIGNFLKQYPIVKGVGIGWPGLVSLDRTKVILLPNIPSVVNVPIVEILRSEFPHIHFKIENDAKCAALGEYYFGENKRMQTFILLALGTGVGSGVMMNGKLFIGGRGNGTEVGHMLTTRGKSLENQVGINHLIAYTHEQLALDVAKKSSLHTIAELSPKVIADHAAQGDALALAVWADIGTIIGESLVNIVRVMDLNNILLGGGISGAFDYFVPNLKKAMLEHLPTYYTDDMYIGKATLENDAGLLGAAGLIMEAI | not failed |
| MILIRNVRLVDARGERGPADVLIGEGRILSLEGGEAKQVVDGTGCFLAPGFLDLHAHLREPGEEVKEDLFSGLLAAVRGGYTDLVSMPNTKPPVDTPEAVRALKEKAKALGLARLHPAAALTEKQEGKTLTPAGLLREAGAVLLTDDGRTNEDAGVLAAGLLMAAPLGLPVAVHAEDAGLRRNGVMNDGPLADLLGLPGNPPEAEAARIARDLEVLRYALRRSPATPRLHVQHLSTKRGLELVREAKRAGLPVTAEATPHHLTLTEEALRTFDPLFKVAPPLRGEEDREALLEGLLDGTLDAIATDHAPHTLAEKEKDLLRAPFGIPSLEVAFPLLYTELHLKRGFPLQRLVELFTDGPRRVLGLPPLHLEEGAEASLVLLSPKERPVDPSAFASKARYSPWAGWVLGGWPVLTLVAGRIVHEALK | not failed |
| MILKKEYSYESLRKKGAKKKKNFLCLQKYAMIYLVIRRYPYMSFGQKFKHFLAPLDEDDILEVEQDAEEEDAQTISQYEQQRSRMNKLPNDTKMVLFEPRSFDEADEIARRLKENKAAVVNLHKLQREYAQRTIDFLTGVIFALDGSIQKIGHNVILCTPNNVPVQGQITLDSGEDE | failed |
| MILLCFPGSEQGIGMHQFEFLGQLVLIGALAIVNILVFQKIRIPPVIGLIFTGIMLGPTGFHVIRNSGLISTLAEMGVVLLLFTIGLEFSADDLKKLRKIVLFGGTAQILLTGLVIAMFSYWLMDAIGKSVGSKEALVLGFSFSVSSTALCLKILSDRGELGFDHGKIALGILIFQDMAIVPLMFGFSFLTRGSSMPLESSFEEIALLLLFAIGMFGGFRLLMPKIVRIITELHAGEVLVLGALVLCFGAAWLASLIGLSLALGAFMAGMVIASTDGSHRISRTIDPFREAMTSIFFVSVGLLLDVNMIELPWLIAIALVVLVVKGLIMTGILMALGFSLRVSLMSGMVLAQIGEFSFVLAGTAKDAGLLDQHMFQSMLAVIVVTMIVTPALISAAPKFAAQVAPALGFMPLASKPEPKQPARAAAGPIVCRGEIHAAIIGFGLIGRNIAAVMNATNLNYTVLDTDRKTVKTMRRQGEPLFYGDCTERKSLLRIGVDHSRAVVICIPEIDAAIQCIRLVREINPGAFIIVRSRSLESTNRFYRAGADAAVTELFETSIQMFSELLKHFRVEPETILAQQEIIRREGGNIFRELVTETDGSGDDPAKKSQNGAGFVTSET | failed |
